The values below come from PMC2474558.

For assay [1], the target named is T1, hDOP–Renilla luciferase (human), P41143.
T1 chain: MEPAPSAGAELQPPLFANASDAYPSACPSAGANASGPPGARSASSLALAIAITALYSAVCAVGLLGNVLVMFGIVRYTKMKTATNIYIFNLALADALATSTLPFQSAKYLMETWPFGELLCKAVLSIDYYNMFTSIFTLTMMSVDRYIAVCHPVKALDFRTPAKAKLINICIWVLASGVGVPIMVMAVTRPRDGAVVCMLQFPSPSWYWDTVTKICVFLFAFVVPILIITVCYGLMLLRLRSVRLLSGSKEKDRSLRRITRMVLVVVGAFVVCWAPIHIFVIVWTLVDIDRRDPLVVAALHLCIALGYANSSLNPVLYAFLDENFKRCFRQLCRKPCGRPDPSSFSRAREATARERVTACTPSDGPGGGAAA
The experiment in a line: FRET or BRET. As to conditions: remark: other sources report otherwise. In general terms: BRET reads energy transfer from a luciferase to a nearby fluorophore.

In assay [2] the target is T2, hCXCR2–Renilla luciferase (human), P25025.
T2 chain: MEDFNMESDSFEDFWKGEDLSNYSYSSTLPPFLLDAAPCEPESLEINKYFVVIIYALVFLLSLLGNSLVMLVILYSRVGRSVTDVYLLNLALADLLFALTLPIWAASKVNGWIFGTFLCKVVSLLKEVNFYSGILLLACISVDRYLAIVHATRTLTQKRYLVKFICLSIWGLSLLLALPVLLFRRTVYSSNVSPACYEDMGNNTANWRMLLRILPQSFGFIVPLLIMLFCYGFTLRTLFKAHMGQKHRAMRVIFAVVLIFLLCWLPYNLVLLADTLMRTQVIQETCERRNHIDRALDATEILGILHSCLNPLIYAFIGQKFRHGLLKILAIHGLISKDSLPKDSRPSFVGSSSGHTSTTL
The experiment in a line: FRET or BRET. The following applies: remark: other sources report otherwise.

B1: hDOP–GFP^2, P41143 1-372 (receptor)
chain: T1 chain
For B1, the BRET50 ([acceptor] to [donor] ratio) in assay [1] is 2.2.

B2: hCXCR2–GFP^2, P25025 1-360 (receptor)
chain: T2 chain
On to B2, for which the BRET50 ([acceptor] to [donor] ratio) in assay [2] amounted to 1.6.
